In patent US20240301067A1 (WUXI BIOLOGICS IRELAND, published 2024):

T1: Human ICOS extracellular domain, mFc tag (human, UniProt Q9Y6W8 21-140)
T1 construct: extracellular domain; also called hICOS.ECD.mFc; not shown: mouse Fc tag at C-terminus
T1 sequence (looked up): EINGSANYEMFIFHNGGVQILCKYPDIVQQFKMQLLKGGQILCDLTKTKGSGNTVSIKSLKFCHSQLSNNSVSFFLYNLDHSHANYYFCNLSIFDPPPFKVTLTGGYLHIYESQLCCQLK


What was measured:
[1] = molecular target: T1, Human ICOS extracellular domain, mFc tag; assay: ELISA, coated antigen 1 ug/mL, antibody 100 nM, HRP goat anti-human IgG
Procedure: Plates were pre-coated with 1 μg/mL, 100 μL per well of hPD-1.ECD.mFc, hCD28.ECD.mFc, hCTLA-4.ECD.His, hICOS.ECD.mFc or hBTLA.ECD.His at 4° C. overnight. After 1-hour blocking using 200 μL of 1×PBS/2% BSA, testing antibodies were added to the plates at a concentration of 100 nM. The plates were incubated at ambient temperature for 1 hour. The binding of the antibodies to the immobilized proteins was detected by HRP-labeled goat anti-human IgG antibody. The color was developed by dispensing 100 μL of TMB substrate, and then stopped by 100 μL of 2N HCl. The absorbance was read at 450 nm and 540 nm using a microplate spectrophotometer.

[2] = molecular target: T2, Cynomolgus monkey PD-1 on transiently transfected 293F cells (cynomolgus monkey); assay: FACS on cyno PD-1 transfected 293F cells, experiment 1
T2 construct: whole, on cells; also called cell surface cynomolgus PD-1; cyno PD-1
Procedure: (§1) Cynomolgus monkey PD-1 (GenBank Accession No. NP_001271065.1) transient transfected 293F cells (2×10⁵ cells/well) were incubated with various concentrations of anti-PD-1 antibodies (3-fold serially diluted from 133.4 nM to 0.008 nM) at 4° C. for 1 hour. After washing with 1×PBS/1% BSA, the secondary antibody PE-labeled goat anti-human IgG was applied and incubated with cells at 4° C. for 1 hour. Anti-human PD-1 antibodies BMK1 and BMK3 were used as positive control. Human IgG4 isotype antibody was used as negative control. The cells were then washed and re-suspended in 1×PBS/1% BSA. MFI of the cells was measured by a flow cytometer and analyzed by FlowJo (version 7.6.1).

[3] = molecular target: T3, Human PD-1 extracellular domain, mFc tag (human, UniProt Q15116 25-170); assay: ELISA competition on coated hPro1.ECD.mFc; competitor hPro1L2.ECD.His; experiment 2
T3 construct: extracellular domain; also called hPro1.ECD.mFc; hPD-1.ECD.mFc; not shown: mouse Fc tag at C-terminus
Procedure: Plates were pre-coated with 1 μg/mL, 100 μL per well of human PD-1 ECD (hPro1.ECD.mFc) at 4° C. overnight. After 1-hour blocking using 200 μL of 1×PBS/2% BSA, constant concentration of his tagged human PD-L2 ECD (hPro1L2.ECD.His) and various concentrations of testing antibodies (3-fold serially diluted from 66.7 nM to 0.003 nM) were pre-mixed and added to the plates. After 2-hour incubation at ambient temperature, the binding of the ligand to the immobilized protein was detected by HRP-labeled goat anti-His antibody. The color was developed by dispensing 100 μL of TMB substrate, and then stopped by 100 μL of 2N HCl. The absorbance was read at 450 nm and 540 nm using a microplate spectrophotometer.

[4] = molecular target: T2, Cynomolgus monkey PD-1 on transiently …; assay: FACS on cyno PD-1 transfected 293F cells, experiment 2
Procedure: as §1

[5] = molecular target: T4, Cynomolgus PD-1 extracellular domain, hFc tag (cynomolgus, UniProt B0LAJ3 25-170); assay: ELISA competition on coated cynoPro1.ECD.hFc; competitor cynoProL1.ECD.hFc.biotin 2.5 µg/mL; experiment 2
T4 construct: Bought; also called cynoPro1.ECD.hFc; cyno PD-1 ECD protein
Procedure: Plates were pre-coated with 1 μg/mL, 100 μL per well of cyno PD-1 ECD protein (cynoPro1.ECD.hFc) at 4° C. overnight. After 1-hour blocking using 200 μL of 1×PBS/2% BSA, constant concentration of biotinylated cyno PD-L1 (cynoProL1.ECD.hFc.biotin) (2.5 μg/mL) and various concentrations of testing antibody, positive and negative control (3-fold serially diluted from 133.4 nM to 0.007 nM) were pre-mixed and added to the plates. The plates were incubated at ambient temperature for 1 hour. The binding of ligand to the immobilized protein was detected by streptavidin-HRP. The color was developed by dispensing 100 μL of TMB substrate, and then stopped by 100 μL of 2M HCl. The absorbance was read at 450 nm and 540 nm using a microplate spectrophotometer.

[6] = molecular target: T5, Human PD-1 on CHO-S cells (human, UniProt Q15116 25-288); assay: FACS competition with biotinylated BMK3 (1 ug/mL) on CHO-S.hPro1.C6 cells, SA-PE
T5 construct: whole, on cells; also called CHO-S.hPro1.C6; WBP305.CHO-S.hPro1.C6
Procedure: The human PD-1 transfected cells CHO-S.hPro1.C6 were transferred into 96-well U-bottom plates at a density of 1˜2×10⁵ cells/well. Serial dilutions of testing antibodies (4-fold serially diluted from 133.3 nM to 0.008 nM) were mixed with constant concentration of biotinylated BMK1 (1 μg/mL) or biotinylated BMK3 (1 μg/mL), respectively. Then the mixture was added to the cells in 96-well plates and incubated at 4° C. for 1 hour. After washing with 1×PBS/1% BSA, the secondary antibody SA-PE was applied and incubated with cells at 4° C. for 1 hour. The cells were then washed and resuspended in 1×PBS/1% BSA. MFI of the cells was measured by a flow cytometer and analyzed by FlowJo. Data were shown FIG. 9.

[7] = molecular target: T5, Human PD-1 on CHO-S cells; assay: FACS on CHO-S.hPro1.C6 cells, antibody kept 0 to 14 days in human serum at 37 C, PE goat anti-human IgG
Procedure: The human PD-1 transfected cell line WBP305-CHO-S.hPro1.C6 cells (1×10⁵ cells/well) were incubated with various concentrations of serum treated W3056 anti-PD-1 antibodies (3-fold serially diluted from 129.9 nM to 0.0007 nM) at 4° C. for 1 hour. After washing with 1×PBS/1% BSA, the secondary antibody PE-labeled goat anti-human IgG was applied and incubated with cells at 4° C. for 1 hour. Human IgG4 isotype antibody was used as negative control. The cells were then washed and resuspended in 1×PBS/1% BSA. MFI of the cells was measured by a flow cytometer (BD) and analyzed by FlowJo.

T5 sequence (Q15116 25-288): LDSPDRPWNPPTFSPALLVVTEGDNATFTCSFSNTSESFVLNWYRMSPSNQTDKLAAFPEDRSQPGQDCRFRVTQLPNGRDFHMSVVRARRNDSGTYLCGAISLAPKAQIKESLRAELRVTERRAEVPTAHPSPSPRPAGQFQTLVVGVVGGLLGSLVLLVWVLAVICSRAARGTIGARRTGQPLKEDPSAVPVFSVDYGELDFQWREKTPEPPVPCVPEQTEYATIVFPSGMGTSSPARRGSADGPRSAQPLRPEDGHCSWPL
T3 sequence (Q15116 25-170): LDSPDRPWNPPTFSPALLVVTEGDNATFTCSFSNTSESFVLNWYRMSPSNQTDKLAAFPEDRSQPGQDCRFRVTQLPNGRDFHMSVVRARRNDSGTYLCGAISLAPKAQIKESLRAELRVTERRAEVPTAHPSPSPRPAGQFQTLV
T4 sequence (B0LAJ3 entry or part of it limits assumed): as the sequence (Q15116 25-170) above, with D2E, P10A, V19L, T35A, Q75R, T144A counted along it

Row | binding result [1] | EC50 [2] [nM] | IC50 [3] [nM] | EC50 [4] [nM] | IC50 [5] [nM] | IC50 (read off the curve) [6] [nM] | EC50 (read off the curve) [7] [nM] | Binder
1 | no binding (tested: 100 nM) | 0.98 |  |  |  |  |  | W3056-AP17R1-2H2-FC(IgG4.SP) (Fc fusion, VHH fused to Fc of human IgG4 S228P; also called W3056 lead parental antibody (VHH-Fc(hIgG4) fusion); not shown: Fc of human IgG4 (hIgG4.S228P)) QVQLVESGGGLVQPGGSLRLSCAASDSIDSLVNMGWYRQAPGKQRELVALIANYITHYADFVKGRFTISRDAAKNTVNLQMSSLKPEDTAVYYCYARNIIVDYWGQGTQVTVSS
2 | no binding (tested: 100 nM) |  | 0.886 | 1.98 | 0.853 | ~20 | 1 to 2 | W3056-AP17R1-2H2-Z1-R1-14A1-FC(IgG4.SP) (Fc fusion, also called W3056 lead antibody (VHH-Fc(hIgG4) fusion); not shown: Fc of human IgG4 (hIgG4.S228P)) QVQLVESGGGVVQPGGSLRLSCAASDSIDSLVNMGWYRQAPGKQRELVALIATYITHYADFVKGRFTISRDNSKNTLYLQMNSLRAEDTAVYYCYARNIIVDYWGQGTLVTVSS
